Measured values published in publication PMC6755812.

Target: Escherichia coli peptide methionine sulfoxide reductase A (E. coli) (UniProt P0A744)
Conditions: not given

Sequence of Escherichia coli peptide methionine sulfoxide reductase A (E. coli) (P0A744 2-212): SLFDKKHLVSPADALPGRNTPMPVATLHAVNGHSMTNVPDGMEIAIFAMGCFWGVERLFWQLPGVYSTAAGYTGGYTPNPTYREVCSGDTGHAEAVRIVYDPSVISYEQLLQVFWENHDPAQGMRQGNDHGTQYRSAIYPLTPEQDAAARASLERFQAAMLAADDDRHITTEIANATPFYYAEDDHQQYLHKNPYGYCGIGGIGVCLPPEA
Sequence of Escherichia coli thioredoxin (P0AA25 2-109): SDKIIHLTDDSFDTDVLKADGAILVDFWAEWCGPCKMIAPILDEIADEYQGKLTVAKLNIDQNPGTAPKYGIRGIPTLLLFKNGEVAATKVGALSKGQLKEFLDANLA

Row | k1: rate constant of Trx–MsrA mixed disulfide formation (stopped-flow fluorescence, 1 μM oxidized MsrA, 5-100 μM reduced Trx, pH 7.0, 25 °C) [M^−1 s^−1] | k2: rate constant of mixed disulfide dissociation to reduced MsrA and oxidized Trx (stopped-flow fluorescence, pH 7.0, 25 °C) [s^−1] | Substance
1 | 369000 | 1.65 | Last γ-Proteobacteria Common Ancestor thioredoxin (enzyme)
2 | 436000 | 2.93 | Last Common Ancestor of the Cyanobacterial, Deinococcus, and Thermus group thioredoxin (enzyme)
3 | 518000 | 1.54 | Last Archaeal Common Ancestor thioredoxin (enzyme)
4 | 45000 | 3.47 | Last Animalia and Fungi Common Ancestor thioredoxin (enzyme)
5 | 40700 | 3.51 | Last Eukaryotic Common Ancestor thioredoxin (enzyme)

More lines, now with the values behind:

Row | Substance | k1: rate constant of Trx–MsrA mixed disulfide formation (stopped-flow fluorescence, 1 μM oxidized MsrA, 5-100 μM reduced Trx, pH 7.0, 25 °C) [M^−1 s^−1] | k2: rate constant of mixed disulfide dissociation to reduced MsrA and oxidized Trx (stopped-flow fluorescence, pH 7.0, 25 °C) [s^−1]
6 | Escherichia coli thioredoxin (from UniProt P0AA25 2-109) (enzyme) | 1.01e+06 | 2.89
7 | Last Bacterial Common Ancestor thioredoxin (enzyme) | 498000 | 2.69
8 | Archaeal–Eukaryotic Common Ancestor thioredoxin (enzyme) | 716000 | 1.75

Target: Escherichia coli thioredoxin reductase (E. coli) (UniProt P0A9P4)
Conditions: not given

Sequence of Escherichia coli thioredoxin reductase (E. coli) (P0A9P4 2-321): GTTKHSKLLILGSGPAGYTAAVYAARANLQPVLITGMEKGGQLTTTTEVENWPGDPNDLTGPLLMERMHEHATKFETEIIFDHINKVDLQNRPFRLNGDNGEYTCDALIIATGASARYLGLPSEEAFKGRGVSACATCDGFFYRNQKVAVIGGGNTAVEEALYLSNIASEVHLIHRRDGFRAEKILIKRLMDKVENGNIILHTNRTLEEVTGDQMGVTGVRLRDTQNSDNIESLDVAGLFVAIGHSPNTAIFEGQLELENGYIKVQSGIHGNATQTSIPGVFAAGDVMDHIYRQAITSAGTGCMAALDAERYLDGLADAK

Row | Catalytic activity of S-MetO reduction by NADPH (Vi/[Trx]) in the reconstituted NADPH/TrxR/Trx/MsrA chain (4.5 μM TrxR, 4.5 μM MsrA, 0.1-1.0 μM Trx, pH 7.0, 25 °C) [min^−1] | kcat/Km: activity as substrate of TrxR (ecTrxR-catalysed reduction of Trx by NADPH, DTNB-coupled, 0.04 μM TrxR, 0.1-300 μM Trx, pH 7.0, 25 °C) [M^−1 s^−1] | Substance
9 | 25.8 | 718000 | Last γ-Proteobacteria Common Ancestor thioredoxin (enzyme)
10 | 36.9 | 7.6e+06 | Last Common Ancestor of the Cyanobacterial, Deinococcus, and Thermus group thioredoxin (enzyme)
11 | 9.13 | 118000 | Last Archaeal Common Ancestor thioredoxin (enzyme)
12 | 0.29 |  | Last Eukaryotic Common Ancestor thioredoxin (enzyme)

Second part, the substance before the results:

Row | Substance | Catalytic activity of S-MetO reduction by NADPH (Vi/[Trx]) in the reconstituted NADPH/TrxR/Trx/MsrA chain (4.5 μM TrxR, 4.5 μM MsrA, 0.1-1.0 μM Trx, pH 7.0, 25 °C) [min^−1] | kcat/Km: activity as substrate of TrxR (ecTrxR-catalysed reduction of Trx by NADPH, DTNB-coupled, 0.04 μM TrxR, 0.1-300 μM Trx, pH 7.0, 25 °C) [M^−1 s^−1]
13 | Escherichia coli thioredoxin (from UniProt P0AA25 2-109) (enzyme) | 66.9 | 8.81e+06
14 | Last Bacterial Common Ancestor thioredoxin (enzyme) | 11.7 | 117000
15 | Archaeal–Eukaryotic Common Ancestor thioredoxin (enzyme) | 14.6 | 130000

Target: Cys32 (UniProt position 33, FWAEWCGPCKM)
Conditions: reduced (dithiol) form implied; not stated explicitly; cited from earlier work

Row | Substance | pKa
16 | Thioredoxin 1 (ecTrx) (Escherichia coli) | 7.1

Target: bovine pancreas insulin (bovine)
Conditions: not given

Row | Specific insulin reductase activity (0.13 mM insulin, 1 mM DTT, 0.5-2.0 μM Trx, onset of aggregation at OD650, pH 7.0, 25 °C) [min^−1 μM^−1] | Substance
17 | 0.0645 | Last γ-Proteobacteria Common Ancestor thioredoxin (enzyme)
18 | 0.104 | Last Common Ancestor of the Cyanobacterial, Deinococcus, and Thermus group thioredoxin (enzyme)
19 | 0.0532 | Last Archaeal Common Ancestor thioredoxin (enzyme)
20 | 0.0224 | Last Animalia and Fungi Common Ancestor thioredoxin (enzyme)
21 | 0.0738 | Last Eukaryotic Common Ancestor thioredoxin (enzyme)

The remaining lines, values behind:

Row | Substance | Specific insulin reductase activity (0.13 mM insulin, 1 mM DTT, 0.5-2.0 μM Trx, onset of aggregation at OD650, pH 7.0, 25 °C) [min^−1 μM^−1]
22 | Escherichia coli thioredoxin (from UniProt P0AA25 2-109) (enzyme) | 0.0512
23 | Last Bacterial Common Ancestor thioredoxin (enzyme) | 0.0781
24 | Archaeal–Eukaryotic Common Ancestor thioredoxin (enzyme) | 0.0452
